Patent US20100279923A1

Target: T1, factor XII (FXII/FXIIa) in rat plasma (rat) (UniProt D3ZTE0)
T1 sequence (looked up): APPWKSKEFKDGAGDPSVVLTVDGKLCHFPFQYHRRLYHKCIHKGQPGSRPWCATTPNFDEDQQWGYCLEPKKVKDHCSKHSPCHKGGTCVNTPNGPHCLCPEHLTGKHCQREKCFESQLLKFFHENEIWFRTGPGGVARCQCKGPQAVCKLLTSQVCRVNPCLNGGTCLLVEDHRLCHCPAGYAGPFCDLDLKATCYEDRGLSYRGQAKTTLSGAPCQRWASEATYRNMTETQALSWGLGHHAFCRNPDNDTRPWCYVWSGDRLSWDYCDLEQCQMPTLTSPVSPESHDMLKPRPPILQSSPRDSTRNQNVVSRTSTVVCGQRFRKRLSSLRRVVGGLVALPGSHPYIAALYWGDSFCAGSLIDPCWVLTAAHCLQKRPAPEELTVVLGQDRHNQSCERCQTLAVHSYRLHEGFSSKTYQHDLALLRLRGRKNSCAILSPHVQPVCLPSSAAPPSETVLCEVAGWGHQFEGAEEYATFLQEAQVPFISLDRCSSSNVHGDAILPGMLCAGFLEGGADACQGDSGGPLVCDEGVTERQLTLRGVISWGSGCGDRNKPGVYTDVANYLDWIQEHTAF
Assay: cell-based or functional assay

B1: Berinert P (C1 esterase inhibitor) (protein, human, UniProt P05155 23-500, looked up)
chain: NPNATSSSSQDPESLQDRGEGKVATTVISKMLFVEPILEVSSLPTTNSTTNSATKITANTTDEPTTQPTTEPTTQPTIQPTQPTTQLPTDSPTQPTTGSFCPGPVTLCSDLESHSTEAVLGDALVDFSLKLYHAFSAMKKVETNMAFSPFSIASLLTQVLLGAGENTKTNLESILSYPKDFTCVHQALKGFTTKGVTSVSQIFHSPDLAIRDTFVNASRTLYSSSPRVLSNNSDANLELINTWVAKNTNNKISRLLDSLPSDTRLVLLNAIYLSAKWKTTFDPKKTRMEPFHFKNSVIKVPMMNSKKYPVAHFIDQTLKAKVGQLQLSHNLSLVILVPQNLKHRLEDMEQALSPSVFKAIMEKLEMSKFQPTLLTLPRIKVTTSQDMLSIMEKLEFFDFSYDLNLCGLTEDPDLQVSAMQHQTVLELTETGVEAAAASAISVARTLLVFEVQQPFLFVLWDQQHKFPVFMGRVYDPRA
B1 was tested, and the FXII activity [% of the norm] in rat plasma spiked with 0.98 U/mL Berinert P (% of the norm) was 215, the FXII activity [% of the norm] in rat plasma spiked with 2.4 U/mL Berinert P (% of the norm) was 94 and the FXII activity [% of the norm] in rat plasma spiked with 4.5 U/mL Berinert P (% of the norm) was 85. It also gave an FXII activity [% of the norm] in rat plasma spiked with 9.92 U/mL Berinert P (% of the norm) of 55 and an FXII activity [% of the norm] in rat plasma spiked with 16.7 U/mL Berinert P (% of the norm) of 25.
